One block for each molecule: values may come before it.
Experiments:
[1] = target: Bacillus halodurans trp RNA-binding attenuation protein (TRAP) (Bacillus halodurans); experiment: crystal structure; hanging drop vapor diffusion at 18°C, protein with 5-15 mM L-tryptophan; data at 120 K; ring oligomer built from the asymmetric unit and crystallographic symmetry
[2] = target: Bacillus halodurans trp RNA-binding attenuation protein (TRAP) (Bacillus halodurans); experiment: native MS; nanoflow electrospray, 100 mM ammonium acetate (pH 7.5), 10 µM L-tryptophan, protein 0.1–0.4 mg/ml
[3] = target: Bacillus stearothermophilus E71stop TRAP (Bacillus stearothermophilus); experiment: crystal structure; hanging drop vapor diffusion at 18°C, protein with 5-15 mM L-tryptophan; data at 120 K; ring oligomer built from the asymmetric unit and crystallographic symmetry
[4] = target: Bacillus stearothermophilus E71stop TRAP (Bacillus stearothermophilus); experiment: native MS; nanoflow electrospray, 100 mM ammonium acetate (pH 7.5), 10 µM L-tryptophan, protein 0.1–0.4 mg/ml
[5] = target: the molecule itself; experiment: crystal structure; hanging drop vapor diffusion at 18°C, protein with 5-15 mM L-tryptophan; data at 120 K; ring oligomer built from the asymmetric unit and crystallographic symmetry
[6] = target: the molecule itself; experiment: native MS; nanoflow electrospray, 100 mM ammonium acetate (pH 7.5), 10 µM L-tryptophan, protein 0.1–0.4 mg/ml

- stoichiometry N [1]: 12 subunits
- stoichiometry N [2]: 12 subunits
Molecule: Bacillus halodurans trp RNA-binding attenuation protein (TRAP) (natural protein)

- stoichiometry N [3]: 12 subunits
- stoichiometry N [4]: 12 subunits
Molecule: Bacillus stearothermophilus E71stop TRAP (domain or fragment)

B1: Bacillus subtilis K71stop TRAP (domain or fragment, UniProt P19466 1-71, looked up)
chain: MNQKHSSDFVVIKAVEDGVNVIGLTRGTDTKFHHSEKLDKGEVIIAQFTEHTSAIKVRGEALIQTAYGEMK
notes: TRAP of Bacillus subtilis with the last four amino acids removed from the C-terminus (K71stop); Homo-12-mer; also called B. subtilis TRAP K71stop; mutant B. subtilis TRAP; source: QuikChange on a pET9a plasmid containing the wild type gene; produced and purified as described previously [10]; size-exclusion chromatography (Superdex 200); copies: 12
- stoichiometry N [5]: 12 subunits

B2: Bacillus subtilis V11L TRAP (natural protein, UniProt P19466 1-75, looked up)
chain: MNQKHSSDFVLIKAVEDGVNVIGLTRGTDTKFHHSEKLDKGEVIIAQFTEHTSAIKVRGEALIQTAYGEMKSEKK
notes: TRAP of Bacillus subtilis with the mutation Val11 to Leu; Homo-12-mer by native mass spectrometry; could not be crystallised; also called V11L mutant; B. subtilis V11L TRAP; source: QuikChange on a pET9a plasmid containing the wild type gene; produced and purified as described previously [10]; copies: 12
- stoichiometry N [6]: 12 subunits

B3: Bacillus stearothermophilus TRAP, wild type (natural protein, UniProt Q9X6J6 1-74, looked up)
chain: MYTNSDFVVIKALEDGVNVIGLTRGADTRFHHSEKLDKGEVLIAQFTEHTSAIKVRGKAYIQTRHGVIESEGKK
notes: Homo-11-mer; control of the native mass spectrometry; also called B. stearothermophilus TRAP; TRAP11; source: pET9a plasmid containing the wild type gene; produced and purified as described previously [10]; copies: 11
- stoichiometry N [6]: 11 subunits

Source: PMC3184956, “How to Change the Oligomeric State of a Circular Protein Assembly: Switch from 11-Subunit to 12-Subunit TRAP Suggests a General Mechanism” (PLoS ONE, 2011)
